Results reported in CN111333732A (UNIV CHINA PHARMA, dated 2020).

T1: BCMA-Fc蛋白 (human, UniProt Q02223 1-54)
T1 construct: Captured on a CM5 chip through anti-human Fc antibody for SPR; also called BCMA抗原; not shown: Fc part, captured by anti-human Fc antibody
T1 sequence (looked up): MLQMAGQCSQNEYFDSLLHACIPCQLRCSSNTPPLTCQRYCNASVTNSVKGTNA

T2: NKG2D-Fc蛋白 (UniProt P26718 78-216, limits assumed)
T2 construct: Captured on a CM5 chip through anti-human Fc antibody for SPR; not shown: Fc part, captured by anti-human Fc antibody
T2 sequence (looked up): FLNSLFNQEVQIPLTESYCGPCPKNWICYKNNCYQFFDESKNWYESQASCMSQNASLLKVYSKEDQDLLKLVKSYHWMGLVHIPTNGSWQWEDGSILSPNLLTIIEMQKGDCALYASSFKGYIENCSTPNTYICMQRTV

B1: 抗人BCMA单链抗体2A9 (scFv)
scFv: ASMAEVQLQQSGAELVKPGASVKLSCTASGFNIKDTYMHWVKQRPEQGLEWIGRIDPANGNTKYDPKFQGKATITADTSSNTAYLQLSSLTSEDTAVYYCARWVYWGQGTTLTVSTGGGGSDVVMTQSPSSMYASLGERVTITCKASQDINSYLSWFQQKPGKSPKTLIYRANRLVDGVPSRFSGSGSGQDYSLTISSLEYEDMGIYYCLQYDEFPYTFGGGTKLEIKR
notes: Parental scFv from phage display; also called rG7S
B2: 双特异性抗体2A9-MICA (anti-human BCMA scFv 2A9 fused to human MICA extracellular regions 1-3) (bispecific antibody)
chain: MAEVQLQQSGAELVKPGASVKLSCTASGFNIKDTYMHWVKQRPEQGLEWIGRIDPANGNTKYDPKFQGKATITADTSSNTAYLQLSSLTSEDTAVYYCARWVYWGQGTTLTVSTGGGGSDVVMTQSPSSMYASLGERVTITCKASQDINSYLSWFQQKPGKSPKTLIYRANRLVDGVPSRFSGSGSGQDYSLTISSLEYEDMGIYYCLQYDEFPYTFGGGTKLEIKRGSGGGGSEPHSLRYNLTVLSWDGSVQSGFLAEVHLDGQPFLRYDRQKCRAKPQGQWAEDVLGNKTWDRETRDLTGNGKDLRMTLAHIKDQKEGLHSLQEIRVCEIHEDNSTRSSQHFYYDGELFLSQNLETEEWTVPQSSRAQTLAMNVRNFLKEDAMKTKTHYHAMHADCLQELRRYLESGVVLRRTVPPMVNVTRSEASEGNITVTCRASSFYPRNIILTWRQDGVSLSHDTQQWGDVLPDGNGTYQTWVATRICRGEEQRFTCYMEHSGNHSTHPVPSGKVLVLQSHW
notes: also called 抗体融合蛋白2A9-MICA; rG7S-MICA

Assays:
BCMA-Fc蛋白 [1] = target: T1, BCMA-Fc蛋白; experiment: SPR, Biacore X100, BCMA-Fc captured by anti-human Fc on CM5, 2A9 as analyte
BCMA-Fc蛋白 [2] = target: T1, BCMA-Fc蛋白; experiment: SPR, Biacore X100, BCMA-Fc captured by anti-human Fc on CM5, 2A9-MICA as analyte
NKG2D-Fc蛋白 = target: T2, NKG2D-Fc蛋白; experiment: SPR, Biacore X100, NKG2D-Fc captured by anti-human Fc on CM5, 2A9-MICA as analyte

Row | Binder | Kd (BCMA-Fc蛋白 [1]) | Kd (BCMA-Fc蛋白 [2]) | Kd (NKG2D-Fc蛋白)
1 | B1 | 34.6 nM |  | 
2 | B2 |  | 76 nM | 3470 nM
